Reference: US20030143647A1 (UNIVERSITY OF PITTSBURGH OF THE COMMONWEALTH SYSTEM OF …, published 2003)

B1: Human cyclin B1 peptide from the database, SEQ ID NO: 7 (AKYLMELTM) (peptide)
peptide: AKYLMELTM
notes: also called HeLa-derived cyclin B1 peptide
B2: Cyclin B1 peptide from the tumor, SEQ ID NO: 1 (AGYLMELCV) (peptide)
peptide: AGYLMELCV
notes: Synthesized by F-moc chemistry, with leucine at positions 4 and 7; also called P1
B3: Cyclin B1 peptide from the tumor, SEQ ID NO: 3 (AGYLMELCF) (peptide)
peptide: AGYLMELCF
notes: Synthesized by F-moc chemistry, with leucine at positions 4 and 7; also called P3
B4: Cyclin B1 peptide from the tumor, SEQ ID NO: 4 (AGYLMELCC) (peptide)
peptide: AGYLMELCC
notes: also called P4
B5: Cyclin B1 peptide from the tumor, SEQ ID NO: 2 (AGYLMELCM) (peptide)
peptide: AGYLMELCM
notes: Synthesized by F-moc chemistry, with leucine at positions 4 and 7; also called P2
B6: Cyclin B1 peptide from the tumor, SEQ ID NO: 5 (AGYLMELCMA) (peptide)
peptide: AGYLMELCMA
notes: Synthesized by F-moc chemistry, with leucine at positions 4 and 7
B7: Cyclin B1 peptide from the tumor, SEQ ID NO: 6 (AGYLMELCFA) (peptide)
peptide: AGYLMELCFA
notes: as for B6
B8: Human cyclin B1 peptide from the database, SEQ ID NO: 8 (AKYLMELTML) (peptide)
peptide: AKYLMELTML
notes: as for B1

Target: T1, HLA-A2.1 molecules on T2 cells (human)
T1 construct: MHC class I molecule on the surface of T2 cells; also called HLA-A*0201
Assay: HLA class I stabilization assay on T2 cells, MA2.1 staining, flow cytometry
Procedure: HLA Class I stabilization assays. Peptide-induced stabilization of HLA-A2.1 molecules on T2 cells was done as previously described (Zeh et al., Hum. Immunol., 39(2), 79-86 (1994)). 2×10⁵ T2 cells were incubated with […] of the indicated synthetic peptides in […] human B2m (Calbiochem, La Jolla, Calif.) for 18-20 hours at room temperature. The cells were then stained with the HLA-A2.1-specific antibody, MA2.1, for 45 minutes, washed with FACS Buffer (PBS, 5% FBS, and 0.01% sodium azide), and stained with a secondary FITC-conjugated anti-IgG antibody (Biosource International, Camarillo, Calif.). The cells were fixed in 4% formaldehyde prior to flow cytometry analysis. The negative control consisted of T2 cells without peptide. The positive control consisted of T2 cells loaded with the Flu matrix peptide, […]. Flow cytometric analysis was done using a FACScan flow cytometer (Becton-Dickinson). Experimental results are depicted as X-Fold increase=(Mean Fluorescent Intensity of T2 cells loaded with peptide/Mean Fluorescent Intensity of T2 cells with no peptide).

HLA-A2.1 Binding (X-Fold increase of MFI) [fold]	Binder
2.28	B1
1.6	B2
1.42	B3
1.61	B4
1.48	B5
1.58	B6
2.08	B7
2.25	B8
